The target in assay [1] is T1, Flag-BNGR-A9 (Bombyx mori neuropeptide G protein-coupled receptor A9) expressed in HEK293 cells (Bombyx mori) (UniProt B3XXM2).
T1 sequence: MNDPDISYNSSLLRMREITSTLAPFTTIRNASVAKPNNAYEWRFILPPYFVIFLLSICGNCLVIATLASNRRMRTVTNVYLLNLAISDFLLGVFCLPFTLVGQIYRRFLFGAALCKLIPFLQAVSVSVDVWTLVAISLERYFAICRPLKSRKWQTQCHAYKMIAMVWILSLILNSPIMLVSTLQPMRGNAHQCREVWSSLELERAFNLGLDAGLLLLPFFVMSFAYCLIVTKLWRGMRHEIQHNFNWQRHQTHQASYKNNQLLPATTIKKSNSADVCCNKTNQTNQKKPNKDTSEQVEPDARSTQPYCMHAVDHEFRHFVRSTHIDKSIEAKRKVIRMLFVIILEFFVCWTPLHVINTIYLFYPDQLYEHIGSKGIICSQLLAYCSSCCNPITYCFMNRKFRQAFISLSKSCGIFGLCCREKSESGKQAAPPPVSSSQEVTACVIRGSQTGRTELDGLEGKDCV

Assay [2] addresses T2, BNGR-A9 expressed in BmN cells (pIZT-BNGR-A9) (Bombyx mori) (UniProt B3XXM2).
T2 sequence: T1 sequence

The target of assay [3] is T1, Flag-BNGR-A9 (Bombyx mori neuropeptide G protein-coupled receptor A9) expressed in HEK293 cells (Bombyx mori). The source holds these as a separate data set.
For assay [4], the target named is T2, BNGR-A9 expressed in BmN cells (pIZT-BNGR-A9) (Bombyx mori). The source holds these as a separate data set.

Where no end group is shown, it is not given here. [ ]: non-standard residue; d: D form. sY = N[C@@H](Cc1ccc(OS(=O)(=O)O)cc1)C(=O)O

B1: Bombyx mori sulfated-sulfakinin (peptide)
peptide: GDDTFDD[sY]GHLRF-NH2
modifications: N-terminus assumed
SMILES: CC(C)C[C@H](NC(=O)[C@H](Cc1c[nH]cn1)NC(=O)CNC(=O)[C@H](Cc1ccc(OS(=O)(=O)O)cc1)NC(=O)[C@H](CC(=O)O)NC(=O)[C@H](CC(=O)O)NC(=O)[C@H](Cc1ccccc1)NC(=O)[C@@H](NC(=O)[C@H](CC(=O)O)NC(=O)[C@H](CC(=O)O)NC(=O)CN)[C@@H](C)O)C(=O)N[C@@H](CCCNC(=N)N)C(=O)N[C@@H](Cc1ccccc1)C(N)=O
Turning to B1, the CRE-driven luciferase reporter, dose-response, HEK293 cells stably expressing BNGR-A9 in assay [1] was 73.3 nM. Besides, the CRE-driven luciferase reporter, dose-response, BmN cells stably expressing BNGR-A9 in assay [2] was determined as 60 nM. The molecule further registered a Fura-2 AM Ca2+ mobilization, dose-response 1 nM to 1 uM, HEK293 cells stably expressing BNGR-A9 in assay [3] of 29 nM. This molecule showed a Fura-2 AM Ca2+ mobilization, dose-response, BmN cells expressing BNGR-A9 in assay [4] of 51.4 nM.

Values taken from article PMC11190223, “Identification of sulfakinin receptor regulating feeding behavior and hemolymph trehalose homeostasis in the silkworm, Bombyx mori” (Scientific Reports, 2024).
